Target: wild-type alpha-synuclein (UniProt P37840)
Test: microfluidic free-flow electrophoresis

oligomer concentration (aptamer-bound, 1:1 assumed): < 80 nM
Substance: wild-type alpha-synuclein (from UniProt P37840 1-140) (natural protein)
